From paper PMC4440733 (PLoS ONE, 2015)

Key:
His-tagged EGFR protein = target: T1, His-tagged EGFR protein (Homo sapiens (species , human …, UniProt P00533)); assay: ELISA; plates coated with anti-his antibody; His-tagged EGFR or ErbB3 captured in PBS with 1% BSA, 1 h RT; gradient-diluted antibodies or DVD-Ig proteins 1 h RT; detected with HRP-conjugated goat-anti-human antibodies; conditions: both partners purified
T1 construct: Epidermal growth factor receptor (EGFR); also called epidermal growth factor receptor; source: bought: Invitrogen

His-tagged ErbB3 protein = target: T2, His-tagged ErbB3 protein (Homo sapiens (species , human …, UniProt P21860)); assay: as above; conditions: both partners purified
T2 construct: Receptor tyrosine-protein kinase ErbB3; also called receptor tyrosine-protein kinase 3; source: bought: Invitrogen
T2 sequence (P21860 20-643): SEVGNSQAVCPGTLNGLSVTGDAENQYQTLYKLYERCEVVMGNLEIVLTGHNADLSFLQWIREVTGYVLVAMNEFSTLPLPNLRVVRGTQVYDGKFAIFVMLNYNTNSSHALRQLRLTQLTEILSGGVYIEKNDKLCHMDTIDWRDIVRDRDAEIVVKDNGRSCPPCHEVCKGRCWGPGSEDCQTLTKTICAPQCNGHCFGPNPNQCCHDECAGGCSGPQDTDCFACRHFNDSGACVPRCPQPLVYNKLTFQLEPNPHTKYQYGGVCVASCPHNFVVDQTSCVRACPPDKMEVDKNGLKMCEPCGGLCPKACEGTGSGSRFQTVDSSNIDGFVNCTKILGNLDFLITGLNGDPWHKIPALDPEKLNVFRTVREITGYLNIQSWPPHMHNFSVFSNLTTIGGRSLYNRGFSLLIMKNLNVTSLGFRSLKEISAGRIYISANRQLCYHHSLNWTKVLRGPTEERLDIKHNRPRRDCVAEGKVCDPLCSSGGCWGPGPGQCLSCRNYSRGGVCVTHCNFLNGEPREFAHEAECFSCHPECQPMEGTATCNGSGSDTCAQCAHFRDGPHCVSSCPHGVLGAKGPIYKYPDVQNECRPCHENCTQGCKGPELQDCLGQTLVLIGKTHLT

EC50 (His-tagged EGFR protein): 1.3 nM
EC50 (His-tagged ErbB3 protein): 5.7 nM
B1: anti-EGFR/ErbB3 bispecific Ab (bsAb), generated from published MEHD7945A sequences (bispecific antibody, V domains shown)
VH: EVQLVESGGGLVQPGGSLRLSCAASGFTLSGDWIHWVRQAPGKGLEWVGEISAAGGYTDYADSVKGRFTISADTSKNTAYLQMNSLRAEDTAVYYCARESRVSFEAAMDYWGQGTLVTVSS
VL: DIQMTQSPSSLSASVGDRVTITCRASQNIATDVAWYQQKPGKAPKLLIYSASFLYSGVPSRFSGSGSGTDFTLTISSLQPEDFATYYCQQSEPEPYTFGQGTKVEIK
notes: also called anti-EGFR/ErbB3 bsAb; two-in-one antibody; source: human embryonic kidney 293 cells, transient, purified (protein A)
